Source: US20100196385A1

Legend:
[1] = biological target: DLL4 extracellular domain (R&D systems, catalog #1506-D4/CF) (UniProt Q9NR61); assay: cell-based or functional assay
human Dll1 (human) [2] = biological target: human Dll1 (human) (UniProt O00548); assay: FACS, 1 µg/ml, 293T cells with human Dll1
human Dll1 (human) [3] = biological target: human Dll1 (human) (UniProt O00548); assay: FACS, 5 µg/ml, 293T cells with human Dll1
human Dll1 (human) [4] = biological target: human Dll1 (human) (UniProt O00548); assay: FACS, 0.2 µg/ml, 293T cells with human Dll1
human Dll1 (human) [5] = biological target: human Dll1 (human) (UniProt O00548); assay: FACS, 1 µg/ml, 293T cells with human Dll1 vs mock
human Dll1 (human) [6] = biological target: human Dll1 (human) (UniProt O00548); assay: FACS, 5 µg/ml, 293T cells with human Dll1 vs mock
human Dll1 (human) [7] = biological target: human Dll1 (human) (UniProt O00548); assay: FACS, 0.2 µg/ml, 293T cells with human Dll1 vs mock
human Jagged1 (human) [8] = biological target: human Jagged1 (human) (UniProt P78504); assay: FACS, 1 µg/ml, 293T cells with human Jagged1
human Jagged1 (human) [9] = biological target: human Jagged1 (human) (UniProt P78504); assay: FACS, 5 µg/ml, 293T cells with human Jagged1
human Jagged1 (human) [10] = biological target: human Jagged1 (human) (UniProt P78504); assay: FACS, 0.2 µg/ml, 293T cells with human Jagged1
human Jagged1 (human) [11] = biological target: human Jagged1 (human) (UniProt P78504); assay: FACS, 1 µg/ml, 293T cells with human Jagged1 vs mock
human Jagged1 (human) [12] = biological target: human Jagged1 (human) (UniProt P78504); assay: FACS, 5 µg/ml, 293T cells with human Jagged1 vs mock
human Jagged1 (human) [13] = biological target: human Jagged1 (human) (UniProt P78504); assay: FACS, 0.2 µg/ml, 293T cells with human Jagged1 vs mock

human Jagged1 (human), sequence (P78504 34-1218): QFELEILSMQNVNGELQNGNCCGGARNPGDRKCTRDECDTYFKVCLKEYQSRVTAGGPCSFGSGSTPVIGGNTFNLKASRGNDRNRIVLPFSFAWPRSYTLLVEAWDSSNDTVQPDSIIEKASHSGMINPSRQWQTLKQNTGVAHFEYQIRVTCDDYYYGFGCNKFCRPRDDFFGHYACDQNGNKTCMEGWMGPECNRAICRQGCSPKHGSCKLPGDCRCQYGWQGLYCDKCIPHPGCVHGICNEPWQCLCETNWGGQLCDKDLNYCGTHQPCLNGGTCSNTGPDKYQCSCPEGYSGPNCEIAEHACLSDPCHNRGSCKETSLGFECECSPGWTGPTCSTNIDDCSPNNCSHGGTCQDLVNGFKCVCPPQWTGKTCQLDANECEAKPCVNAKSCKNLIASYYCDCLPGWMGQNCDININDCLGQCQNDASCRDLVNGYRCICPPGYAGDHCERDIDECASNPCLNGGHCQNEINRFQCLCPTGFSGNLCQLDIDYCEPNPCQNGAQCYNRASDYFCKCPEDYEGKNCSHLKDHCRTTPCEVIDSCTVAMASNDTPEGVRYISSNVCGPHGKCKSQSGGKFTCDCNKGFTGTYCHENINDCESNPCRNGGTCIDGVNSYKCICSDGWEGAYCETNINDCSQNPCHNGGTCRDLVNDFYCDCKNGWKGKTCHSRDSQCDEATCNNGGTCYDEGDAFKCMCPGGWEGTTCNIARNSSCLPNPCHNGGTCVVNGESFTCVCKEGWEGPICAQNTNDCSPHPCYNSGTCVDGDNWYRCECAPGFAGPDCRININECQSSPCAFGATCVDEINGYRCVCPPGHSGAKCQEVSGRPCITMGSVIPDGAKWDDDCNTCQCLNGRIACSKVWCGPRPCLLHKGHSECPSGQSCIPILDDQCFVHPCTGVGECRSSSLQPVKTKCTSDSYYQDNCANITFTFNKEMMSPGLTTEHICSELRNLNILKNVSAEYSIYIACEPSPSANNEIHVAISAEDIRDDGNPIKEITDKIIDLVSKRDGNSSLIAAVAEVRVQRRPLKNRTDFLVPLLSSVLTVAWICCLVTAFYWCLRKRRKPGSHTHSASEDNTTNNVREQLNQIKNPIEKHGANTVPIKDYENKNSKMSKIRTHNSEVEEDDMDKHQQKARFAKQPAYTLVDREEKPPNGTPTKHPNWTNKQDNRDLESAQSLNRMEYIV
DLL4 extracellular domain (R&D systems, catalog #1506-D4/CF), sequence (Q9NR61 27-529 limits assumed): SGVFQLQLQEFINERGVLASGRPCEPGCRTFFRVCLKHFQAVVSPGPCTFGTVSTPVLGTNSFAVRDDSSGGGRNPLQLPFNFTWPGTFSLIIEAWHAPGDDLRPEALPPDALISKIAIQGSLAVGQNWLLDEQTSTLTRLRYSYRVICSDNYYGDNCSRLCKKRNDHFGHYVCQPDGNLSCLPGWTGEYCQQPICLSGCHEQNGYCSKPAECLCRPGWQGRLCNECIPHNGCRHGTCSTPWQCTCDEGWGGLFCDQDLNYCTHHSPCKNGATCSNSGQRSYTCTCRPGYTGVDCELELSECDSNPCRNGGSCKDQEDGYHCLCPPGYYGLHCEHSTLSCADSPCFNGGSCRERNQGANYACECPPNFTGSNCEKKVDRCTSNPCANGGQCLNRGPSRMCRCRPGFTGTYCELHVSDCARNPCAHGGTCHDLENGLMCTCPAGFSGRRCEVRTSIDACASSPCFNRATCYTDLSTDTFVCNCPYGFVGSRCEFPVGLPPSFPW
human Dll1 (human), sequence (O00548 18-723): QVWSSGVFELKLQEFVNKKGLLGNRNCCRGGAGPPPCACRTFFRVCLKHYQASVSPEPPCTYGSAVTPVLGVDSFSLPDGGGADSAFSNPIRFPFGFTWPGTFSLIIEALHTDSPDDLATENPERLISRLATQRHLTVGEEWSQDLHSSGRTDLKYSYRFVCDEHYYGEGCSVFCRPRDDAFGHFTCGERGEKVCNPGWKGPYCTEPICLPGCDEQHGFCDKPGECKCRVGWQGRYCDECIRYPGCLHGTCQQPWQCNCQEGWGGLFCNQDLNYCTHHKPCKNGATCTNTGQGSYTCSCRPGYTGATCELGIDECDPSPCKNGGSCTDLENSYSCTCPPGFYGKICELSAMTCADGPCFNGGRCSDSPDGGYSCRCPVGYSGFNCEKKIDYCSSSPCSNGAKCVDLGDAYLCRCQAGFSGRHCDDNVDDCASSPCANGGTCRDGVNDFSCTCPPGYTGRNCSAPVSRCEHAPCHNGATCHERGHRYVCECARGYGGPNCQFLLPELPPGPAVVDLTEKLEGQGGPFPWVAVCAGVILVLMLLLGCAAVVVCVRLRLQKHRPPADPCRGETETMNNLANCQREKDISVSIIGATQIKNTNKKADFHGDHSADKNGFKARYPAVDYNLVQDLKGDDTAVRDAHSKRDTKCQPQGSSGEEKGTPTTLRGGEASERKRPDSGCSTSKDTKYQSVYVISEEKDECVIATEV

% inhibition 1 µg/ml, AVERAGE (HUVEC proliferation on coated DLL4) [1] [%] | % inhibition 1 µg/ml, N = 1 (HUVEC proliferation on coated DLL4) [1] [%] | % inhibition 1 µg/ml, N = 2 (HUVEC proliferation on coated DLL4) [1] [%] | % inhibition 10 µg/ml, AVERAGE (HUVEC proliferation on coated DLL4) [1] [%] | % inhibition 10 µg/ml, N = 1 (HUVEC proliferation on coated DLL4) [1] [%] | % inhibition 10 µg/ml, N = 2 (HUVEC proliferation on coated DLL4) [1] [%] | Substance | also measured
9 | 18 | 0 | 10 | 11 | 9 | Control IgG2 (antibody) | 
11 | 14 | 8 | 2 | 6 | -3 | Control IgG4 (antibody) | 
 |  |  |  |  |  | Goat anti-human Dll1 antibody (R&D systems cat #AF1818) | Dll1/293T X Geo mean (human Dll1 (human) [2]): 1240; Dll1/293T X Geo mean (human Dll1 (human) [3]): 1840; Dll1/293T X Geo mean (human Dll1 (human) [4]): 565; Dll1/mock ratio (human Dll1 (human) [5]): 6.33; Dll1/mock ratio (human Dll1 (human) [6]): 7.68; Dll1/mock ratio (human Dll1 (human) [7]): 6.94
 |  |  |  |  |  | Mouse anti-human Jagged 1 antibody (R&D systems, catalog #mAB1277) | Jagged1/293T X Geo mean (human Jagged1 (human) [8]): 119; Jagged1/293T X Geo mean (human Jagged1 (human) [9]): 196; Jagged1/293T X Geo mean (human Jagged1 (human) [10]): 50.7; Jagged1/mock ratio (human Jagged1 (human) [11]): 3.94; Jagged1/mock ratio (human Jagged1 (human) [12]): 4.29; Jagged1/mock ratio (human Jagged1 (human) [13]): 3.38
